Article PMC7078472

Assays:
Assay in all cases: MYTH (membrane yeast two-hybrid) quantitative β-Gal activity assay
[1] = target: TbMCU bait for MYTH (without MTS, SUC signal sequence, Cub-LexA-VP16); details: yeast strain NMY51; n = 3; 6 colonies for each independent experiment; parent: est. 140; read off a plot
[2] = target: TbATPc prey for MYTH (T. brucei ATP synthase subunit c without MTS, NubG-HA; identical to TcATPc); details: yeast strain NMY51, n = 3, 6 colonies for each independent experiment, read off a plot
[3] = target: TbATPc prey for MYTH (T. brucei ATP synthase subunit c without MTS, NubG-HA; identical to TcATPc); details: yeast strain NMY51; n = 3; 6 colonies for each independent experiment; parent: est. 150; read off a plot
[4] = target: TbMCU bait for MYTH (without MTS, SUC signal sequence, Cub-LexA-VP16); details: yeast strain NMY51; n = 3; 6 colonies for each independent experiment; parent: est. 140; read off a plot; remark: listed apart in the source
[5] = target: T. cruzi MCU (TcMCU) bait for MYTH (Cub-LexA-VP16); details: yeast strain NMY51; n = 3; 6 colonies for each independent experiment; parent: est. 180; read off a plot
[6] = target: TbMCUc bait for MYTH (Cub-LexA-VP16); details: yeast strain NMY51; n = 3; 6 colonies for each independent experiment; parent: est. 140; read off a plot
[7] = target: TbMCUd bait for MYTH (Cub-LexA-VP16); details: yeast strain NMY51; n = 3; 6 colonies for each independent experiment; parent: est. 180; read off a plot

Substance: TbATPc prey for MYTH (T. brucei ATP synthase subunit c without MTS, NubG-HA; identical to TcATPc) G64A; G66A; G68A; G70A
- response [1]: 69 units

Substance: T. cruzi MCU (TcMCU) bait for MYTH (Cub-LexA-VP16) Q208A; I211P; I212P; F217A
- response ([2]; parent: est. 180): 34 units

Substance: TbMCUd bait for MYTH (Cub-LexA-VP16)
- response ([2]; parent: est. 180): 27 units

Substance: TbMCU bait for MYTH (without MTS, SUC signal sequence, Cub-LexA-VP16) V216P; I217P
- response [3]: 34 units

Substance: TbMCU bait for MYTH (without MTS, SUC signal sequence, Cub-LexA-VP16) Q213A; V216P; I217P; F222A
- response ([2]; parent: est. 140): 28 units
- response [3]: 27 units

Substance: TbMCUc bait for MYTH (Cub-LexA-VP16)
- response ([2]; parent: est. 140): 29 units

Substance: TbATPc prey for MYTH (T. brucei ATP synthase subunit c without MTS, NubG-HA; identical to TcATPc) F98L; F107L; F113L
- response [1]: 130 units

Substance: TbATPc prey for MYTH (T. brucei ATP synthase subunit c without MTS, NubG-HA; identical to TcATPc) G64L; G66L; G68L; G70L
- response [4]: 44 units
- response [5]: 58 units
- response [6]: 43 units
- response [7]: 58 units
- response [1]: 45 units

Substance: TbMCUd bait for MYTH (Cub-LexA-VP16) R123A; V126P; L127P; Y132A
- response ([2]; parent: est. 180): 34 units

Substance: TbMCU bait for MYTH (without MTS, SUC signal sequence, Cub-LexA-VP16) Y235A; F236A; T241E; Y248A
- response [3]: 120 units

Substance: TbMCU bait for MYTH (without MTS, SUC signal sequence, Cub-LexA-VP16)
- response ([2]; parent: est. 140): 26 units

Substance: T. cruzi MCU (TcMCU) bait for MYTH (Cub-LexA-VP16)
- response ([2]; parent: est. 180): 32 units

Substance: TbATPc prey for MYTH (T. brucei ATP synthase subunit c without MTS, NubG-HA; identical to TcATPc) F98L; E102A; F107L; F113L
- response [1]: 88 units

Substance: TbMCUc bait for MYTH (Cub-LexA-VP16) Q161A; V164P; L165P; F170A
- response ([2]; parent: est. 140): 30 units
